Read-outs that look alike come from different tables or passages of the source. Where no end group is shown, it is not given here. Side-chain parts run from the residue outwards. [ ]: non-standard residue; d: D form. lisinopril monoester = lisinopril with its ethyl ester not hydrolysed, amide-linked to γ-Abu; linker type G21 = not defined here; linker type C9 = not defined here; pGlu = O=C1CC[C@@H](C(=O)O)N1; AEEA = NCCOCCOCC(=O)O; GABA = NCCCC(=O)O
Columns and labels:
human GIP receptor = target: T1, human GIP receptor (human, UniProt P48546 22-466); assay: displacement of 30 pM 125I-GIP from HEK-GIPR membranes by 10 nM conjugate, relative to human GIP (100%)
T1 construct: whole, on cells; Membrane fractions of HEK-GIPR cells were used; also called HEK-GIPR
T1 sequence (looked up): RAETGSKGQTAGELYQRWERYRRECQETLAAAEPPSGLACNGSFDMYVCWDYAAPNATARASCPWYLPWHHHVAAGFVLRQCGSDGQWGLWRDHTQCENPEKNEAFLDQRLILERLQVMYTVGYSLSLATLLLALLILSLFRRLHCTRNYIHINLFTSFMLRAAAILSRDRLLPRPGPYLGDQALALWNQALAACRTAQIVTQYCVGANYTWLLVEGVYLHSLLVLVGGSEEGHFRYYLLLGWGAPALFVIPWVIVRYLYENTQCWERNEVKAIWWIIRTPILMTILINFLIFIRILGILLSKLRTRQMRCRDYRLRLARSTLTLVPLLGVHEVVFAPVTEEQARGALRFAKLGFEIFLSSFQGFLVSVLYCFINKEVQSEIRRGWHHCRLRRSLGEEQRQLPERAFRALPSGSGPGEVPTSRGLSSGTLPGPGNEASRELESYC
Description: Membrane fractions were prepared from confluent cell cultures of HEK-GIPR, snap frozen, and stored at −80° C. until use. […] Reactions were allowed to proceed to equilibrium for 90 minutes at room temperature with constant shaking. The reaction mixtures were then filtered through 96-well glass fiber filter plates separating bound and unbound fractions of radioligand.

[1] = target: T2, GLP-1 receptor endogenously expressed by the thyroid c-cell carcinoma line 6-23 (UniProt P32301 22-463); assay: cell-based or functional assay
T2 sequence (looked up): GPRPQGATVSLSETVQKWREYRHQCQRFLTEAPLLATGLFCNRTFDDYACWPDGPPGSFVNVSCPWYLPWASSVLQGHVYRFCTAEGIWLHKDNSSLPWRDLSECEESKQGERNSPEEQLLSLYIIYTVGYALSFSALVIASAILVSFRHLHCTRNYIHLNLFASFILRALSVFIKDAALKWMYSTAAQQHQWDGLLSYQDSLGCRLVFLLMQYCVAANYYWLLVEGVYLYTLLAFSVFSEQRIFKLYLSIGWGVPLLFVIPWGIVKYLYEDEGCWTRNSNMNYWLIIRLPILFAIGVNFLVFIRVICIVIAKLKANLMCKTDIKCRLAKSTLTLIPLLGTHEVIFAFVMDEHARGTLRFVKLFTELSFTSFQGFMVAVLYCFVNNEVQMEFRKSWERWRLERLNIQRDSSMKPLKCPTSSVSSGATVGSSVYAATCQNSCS

ACE from rabbit lung [2] = target: T3, ACE from rabbit lung (rabbit, UniProt P12822 34-1310, limits assumed); assay: cell-based or functional assay
T3 sequence (looked up): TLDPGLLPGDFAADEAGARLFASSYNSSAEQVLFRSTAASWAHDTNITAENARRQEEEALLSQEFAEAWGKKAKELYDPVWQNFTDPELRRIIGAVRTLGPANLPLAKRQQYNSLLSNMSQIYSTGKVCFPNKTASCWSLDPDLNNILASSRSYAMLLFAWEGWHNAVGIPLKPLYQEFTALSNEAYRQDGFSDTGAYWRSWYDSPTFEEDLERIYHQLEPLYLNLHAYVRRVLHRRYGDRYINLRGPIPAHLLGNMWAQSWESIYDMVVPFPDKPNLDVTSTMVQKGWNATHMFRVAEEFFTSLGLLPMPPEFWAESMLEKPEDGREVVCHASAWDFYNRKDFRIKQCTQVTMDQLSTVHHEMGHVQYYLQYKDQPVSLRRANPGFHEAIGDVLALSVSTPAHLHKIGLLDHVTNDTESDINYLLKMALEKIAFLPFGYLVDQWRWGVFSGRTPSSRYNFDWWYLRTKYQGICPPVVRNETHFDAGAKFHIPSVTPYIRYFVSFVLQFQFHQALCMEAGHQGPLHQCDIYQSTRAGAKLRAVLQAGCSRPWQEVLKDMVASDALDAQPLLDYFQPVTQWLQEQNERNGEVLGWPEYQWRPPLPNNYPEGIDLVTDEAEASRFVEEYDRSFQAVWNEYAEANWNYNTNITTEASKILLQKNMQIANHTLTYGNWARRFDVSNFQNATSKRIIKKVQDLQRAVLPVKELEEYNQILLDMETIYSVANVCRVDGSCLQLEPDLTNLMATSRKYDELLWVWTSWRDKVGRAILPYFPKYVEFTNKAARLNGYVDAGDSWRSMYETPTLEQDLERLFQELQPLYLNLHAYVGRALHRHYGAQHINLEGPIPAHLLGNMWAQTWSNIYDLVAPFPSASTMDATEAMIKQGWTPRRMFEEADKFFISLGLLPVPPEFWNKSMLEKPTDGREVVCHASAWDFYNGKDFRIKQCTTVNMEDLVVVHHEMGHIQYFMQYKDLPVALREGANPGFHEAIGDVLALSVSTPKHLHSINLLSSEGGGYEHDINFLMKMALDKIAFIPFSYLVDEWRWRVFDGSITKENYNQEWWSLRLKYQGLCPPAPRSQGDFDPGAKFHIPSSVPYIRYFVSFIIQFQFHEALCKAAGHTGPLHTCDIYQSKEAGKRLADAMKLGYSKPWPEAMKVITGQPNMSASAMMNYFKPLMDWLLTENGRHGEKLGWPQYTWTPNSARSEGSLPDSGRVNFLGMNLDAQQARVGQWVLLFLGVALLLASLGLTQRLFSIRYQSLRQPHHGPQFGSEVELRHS

ACE from rabbit lung [3] = target: T3, ACE from rabbit lung; assay: cell-based or functional assay; remark: listed apart in the source
Recombinant DPP-IV [4] = assay: cell-based or functional assay
Recombinant DPP-IV [5] = assay: cell-based or functional assay; remark: listed apart in the source
[6] = target: T4, GLP-1 receptor endogenously expressed by RIN m5f cells (UniProt P32301 22-463, limits assumed); assay: cell-based or functional assay
T4 sequence (looked up): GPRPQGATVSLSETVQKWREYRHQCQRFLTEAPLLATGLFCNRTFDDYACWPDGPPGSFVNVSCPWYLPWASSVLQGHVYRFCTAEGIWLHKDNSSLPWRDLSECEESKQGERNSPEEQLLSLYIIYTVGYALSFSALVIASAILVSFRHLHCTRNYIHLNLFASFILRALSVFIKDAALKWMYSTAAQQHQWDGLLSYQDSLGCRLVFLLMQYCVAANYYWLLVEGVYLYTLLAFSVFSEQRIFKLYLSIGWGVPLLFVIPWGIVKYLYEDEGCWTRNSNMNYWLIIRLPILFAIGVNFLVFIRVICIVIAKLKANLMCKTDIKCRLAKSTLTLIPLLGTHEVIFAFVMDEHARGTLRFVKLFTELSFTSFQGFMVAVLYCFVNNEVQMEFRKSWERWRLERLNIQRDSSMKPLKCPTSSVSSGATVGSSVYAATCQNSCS

[7] = target: T4, GLP-1 receptor endogenously expressed …; assay: displacement of [125I]GLP-1 tracer from RIN m5f cell membranes (endogenous GLP-1 receptor), filter binding
Description: Membrane fractions were prepared from confluent cultures of RIN m5f cells. […] The reaction mixtures were constantly mixed at 23° C. for 2 hours. The reaction mixtures were filtered through glass filter pads presoaked with 0.3% PEI solution and rinsed with ice-cold phosphate buffered saline. Counts bound to the filer pads were determined using a scintillation counter and binding affinities were calculated using GraphPad PRISM® software (GraphPad Software, Inc., San Diego, Calif.).

B1: [^2D-Ala^14Leu] GIP(1-30)-βAla-βAla-ε-NH-Lys(α-NH-Pyroglutamoyl)-Trp-Ala-Pro (peptide)
peptide 1: Y[dA]EGTFISDYSIALDKIHQQDFVNWLLAQK
peptide 2: [pGlu]KWAP-OH
modifications: not fully specified (C-terminus); printed as [^2D-Ala^14Leu] GIP(1-30)-βAla-βAla-ε-NH-Lys(α-NH-Pyroglutamoyl)-Trp-Ala-Pro; also: linker at chain B 2 to a chain's C-terminus via βAla-βAla
notes: also called [^2D-Ala,^14Leu]; GIP-(1-30)-β-Ala-β-Ala-Lys(α-NH-Pyroglutamoyl)-Trp-Ala-Pro-COOH
Q: For B1, which “GIP RBA % inhibition at 10 nM” value (human GIP receptor) is on record?
A: Its value is 66%.

B2: [^2D-Ala] GIP(1-30)-Ado-Ado-Aun-βAla-βAla-ε-NH-Lys(α-NH-Pyroglutamoyl)-Trp-Ala-Pro (peptide)
peptide 1: Y[dA]EGTFISDYSIAMDKIHQQDFVNWLLAQK
peptide 2: [pGlu]KWAP
modifications: not fully specified (C-terminus); printed as [^2D-Ala] GIP(1-30)-Ado-Ado-Aun-βAla-βAla-ε-NH-Lys(α-NH-Pyroglutamoyl)-Trp-Ala-Pro; also: linker at chain B 2 to a chain's C-terminus via Ado-Ado-Aun-βAla-βAla
Q: B2 was tested. Which “GIP RBA % inhibition at 10 nM” value (human GIP receptor) did it give?
A: The value was 70%.

Q: With YAEGTFISDYSIAMDKIHQQDFVNWLLAQK([AEEA-γ‑L‑Glu‑2‑(S)‑cyano pyrrolidyl]) [Lys^30 N-ε-(Ado-(γ-L-Glu-2-(S)-cyano pyrrolidyl)) GIP(1-30)] as the binder, how does the “GIP RBA % inhibition at 10 nM” value (human GIP receptor) read?
A: The value was 33%.

Q: With YAEGTFISDYSIALDKIHQQDFVNWLLAQK-{AEEA-Lys‑N‑ε‑(2-(S)-cyano pyrrolidyl)} [[^14Leu] GIP(1-30)-Ado-Lys-N-ε-(2-(S)-cyano pyrrolidyl)] as the binder, how does the “GIP RBA % inhibition at 10 nM” value (human GIP receptor) read?
A: The value was 100%.

Q: For HAEGTFTSDVTQQLDEKAAKEFIDWLINGGPSKEIIS-{linker type C9-lisinopril} (reading uncertain) [Compound 5714], which “GLP Cyclase EC50” value [1] is on record?
A: Its value is 2.93 nM.

Q: What about the “ACE inhibition IC50” value (ACE from rabbit lung [2]) of the same binder?
A: Its value is 350 nM.

Q: Which “ACE inhibition IC50” value (ACE from rabbit lung [3]) does the source give for HAEGTFTSDVSSYLEGQAAKEFIAWLVKGRG-{GABA-lisinopril monoester} [GLP-1(7-37)-γ-Abu-CONH-lisinopril monoester] here?
A: Its value is > 100000 nM.

Q: HAEGTFTSDVTQQLDEKAAKEFIDWLINGGPSKEIIS-{linker type G21-lisinopril} (reading uncertain) [Compound 5713] was tested. Which “GLP Cyclase EC50” value [1] did it give?
A: The value was 2.89 nM.

Q: What about the “ACE inhibition IC50” value (ACE from rabbit lung [2]) of the same binder?
A: Its value is 700 nM.

Q: Which “ACE inhibition IC50” value (ACE from rabbit lung [3]) does the source give for HAEGTFTSDVSSYLEGQAAKEFIAWLVKGRG (C-terminus extended by γ-Abu-β-Ala and amide-linked (CONH) to lisinopril diacid) [GLP-1(7-37)-γ-Abu-β-Ala-CONH-lisinopril diacid] here?
A: The value was 180 nM.

Q: For HAEGTFTSDVSSYLEGQAAKEFIAWLVKGRG (lisinopril joined at the C-terminus through linker type G21 (FIG. 2)) [Compound 5607], which “ACE inhibition IC50” value (ACE from rabbit lung [2]) is on record?
A: Its value is 100 nM.

Q: How did the “ACE inhibition IC50” value (ACE from rabbit lung [2]) turn out when HAEGTFTSDVSSYLEGQAAKEFIAWLVKGRG (lisinopril joined at the C-terminus through linker type C9 (FIG. 2)) [Compound 5547] was run?
A: The value was 180 nM.

Q: With HAEGTFTSDVSSYLEGQAAKEFIAWLVKGR-NH2 [GLP-1] as the binder, how does the “DPP-IV IC50” value (Recombinant DPP-IV [4]) read?
A: Its value is > 3300 nM.

Q: How did the “GIP RBA % inhibition at 10 nM” value (human GIP receptor) turn out when YAEGTFISDYSIAMDKIHQQDFVNWLLAQK (C-terminus extended by Ado-Lys-N-ε-(2-(S)-cyano pyrrolidyl)) [GIP(1-30)-Ado-Lys-N-ε-(2-(S)-cyano pyrrolidyl)] was run?
A: The value was 99%.

Q: With IPI [Diprotin A (Ile-Pro-Ile)] as the binder, how does the “DPP-IV inhibition IC50” value (Recombinant DPP-IV [5]) read?
A: The value was 5100 nM.

B3: GLP-1(7-37)-γ-Abu-N^ε2Lys-(Pyr)-WAP-OH (peptide)
peptide 1: HAEGTFTSDVSSYLEGQAAKEFIAWLVKGRG
peptide 2: [pGlu]KWAP-OH
modifications: not fully specified (C-terminus); also: linker at chain B 2 to a chain's C-terminus via γ-Abu
Q: Which “ACE inhibition IC50” value (ACE from rabbit lung [3]) does the source give for B3 here?
A: Its value is > 10000 nM.

Q: For YAEGTFISDYSIAMDKIHQQDFVNWLLAQK (C-terminus extended by Ado-Ado-Lys-N-ε-(2-(S)-cyano pyrrolidyl)) [GIP(1-30)-Ado-Ado-Lys-N-ε-(2-(S)-cyano pyrrolidyl)], which “GIP RBA % inhibition at 10 nM” value (human GIP receptor) is on record?
A: Its value is 97%.

Q: HAEGTFTSDVTQQLDEKAAKEFIDWLINGGPSKEIIS [Compound 4202] was tested. Which “GLP Cyclase EC50” value [1] did it give?
A: Its value is 0.03 nM.

Q: YAEGTFISDYSIAMDKIHQQDFVNWLLAQK (not fully specified (N-terminus)) [N-(γ-L-Glu-2-(S)-cyano pyrrolidyl)-Ado-Ado) GIP(1-30)] was tested. Which “GIP RBA % inhibition at 10 nM” value (human GIP receptor) did it give?
A: The value was 32%.

B4: GLP-1(7-37)-GG-(S)-2,6-diamino-1-(thiazolidin-3-yl)hexan-1-one amide (peptide)
peptide: HAEGTFTSDVSSYLEGQAAKEFIAWLVKGRGGG
modifications: C-terminal Gly amide-linked to (S)-2,6-diamino-1-(thiazolidin-3-yl)hexan-1-one (Lys-thiazolidide, DPP-IV inhibitor motif)
notes: also called Cmpd 4844; 4844
Q: How did the “GLP Cyclase EC50” value [6] turn out when B4 was run?
A: Its value is 0.13 nM.

Q: And the “DPP-IV IC50” value (Recombinant DPP-IV [4])?
A: Its value is 91 nM.

Q: What about the IC50 [7] of the same binder?
A: The IC50 was 0.087 nM.

B5: GLP-1(7-37)-GG-(S)-2,6-diamino-1-(thiazolidin-2-cyano-3-yl)hexan-1-one amide (peptide)
peptide: HAEGTFTSDVSSYLEGQAAKEFIAWLVKGRGGG
modifications: C-terminal Gly amide-linked to (S)-2,6-diamino-1-(thiazolidin-2-cyano-3-yl)hexan-1-one (Lys-2-cyanothiazolidide, DPP-IV inhibitor motif)
notes: also called Cmpd 4845; 4845
Q: What does the source list for B5?
A: GLP Cyclase EC50 [6]: 0.4 nM; DPP-IV IC50 (Recombinant DPP-IV [4]): 76 nM; IC50 [7]: 0.1 nM

Source: patent publication US20100286365A1 (AMYLIN PHARMACEUTICALS, published 2010)
